Measurements taken from publication PMC12378399 (Metallomics : integrated biometal science, 2025).
Like-named read-outs stand apart in the source and are kept apart here.

How the values were obtained:
[1] = target: SufS (Escherichia coli) (UniProt P77444); conditions: cited from earlier work
[2] = target: SufBC2D (Escherichia coli) (UniProt P77522); test: surface plasmon resonance; conditions: cited from earlier work
[3] = target: SufS (Escherichia coli) (UniProt P77444); conditions: cited from earlier work; remark: listed apart in the source
[4] = target: SufS (with SufE) (Escherichia coli, UniProt P77444); conditions: 50 mM MOPS pH 8.0, 150 mM NaCl, 2 mM TCEP, 500 μM L-cysteine, SufE 0.25-3 μM varied (not cysteine)
Chain of SufS (with SufE) (P77444 whole entry, one chain of several): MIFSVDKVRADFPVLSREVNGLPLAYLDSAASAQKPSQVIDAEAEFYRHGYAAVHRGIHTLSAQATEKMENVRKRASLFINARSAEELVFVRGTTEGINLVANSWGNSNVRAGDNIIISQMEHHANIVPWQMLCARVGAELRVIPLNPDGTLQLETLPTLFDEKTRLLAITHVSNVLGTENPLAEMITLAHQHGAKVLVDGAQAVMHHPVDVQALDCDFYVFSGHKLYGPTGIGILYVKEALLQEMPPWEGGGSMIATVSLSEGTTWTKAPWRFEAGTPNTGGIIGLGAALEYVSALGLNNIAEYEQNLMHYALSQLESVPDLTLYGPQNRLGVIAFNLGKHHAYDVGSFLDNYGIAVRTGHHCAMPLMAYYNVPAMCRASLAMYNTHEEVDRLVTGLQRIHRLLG

[5] = target: BODIPY-labeled SufE C51A/E107C (SufEDM) (E. coli) (UniProt P76194); test: fluorescence polarisation
[6] = target: SufBC2D scaffold complex (His6-SufBCD) (E. coli) (UniProt P77522)
Chain of SufBC2D scaffold complex (His6-SufBCD) (E. coli) (P77522 whole entry, chain 1 of 3): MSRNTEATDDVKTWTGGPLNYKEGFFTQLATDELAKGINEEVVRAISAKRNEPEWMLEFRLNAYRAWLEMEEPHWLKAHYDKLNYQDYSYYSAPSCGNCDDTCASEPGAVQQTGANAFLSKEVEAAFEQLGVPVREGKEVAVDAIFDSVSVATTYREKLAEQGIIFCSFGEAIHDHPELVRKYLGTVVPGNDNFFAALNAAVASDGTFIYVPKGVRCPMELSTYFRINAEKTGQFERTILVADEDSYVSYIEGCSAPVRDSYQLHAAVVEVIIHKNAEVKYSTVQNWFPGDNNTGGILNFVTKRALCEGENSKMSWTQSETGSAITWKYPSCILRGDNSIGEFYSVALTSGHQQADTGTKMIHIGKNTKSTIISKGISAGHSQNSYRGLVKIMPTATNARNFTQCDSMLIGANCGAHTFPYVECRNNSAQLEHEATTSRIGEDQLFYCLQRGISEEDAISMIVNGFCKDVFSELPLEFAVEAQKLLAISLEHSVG
Chain of SufBC2D scaffold complex (His6-SufBCD) (E. coli) (P77499 whole entry, chain 2 of 3, further chain): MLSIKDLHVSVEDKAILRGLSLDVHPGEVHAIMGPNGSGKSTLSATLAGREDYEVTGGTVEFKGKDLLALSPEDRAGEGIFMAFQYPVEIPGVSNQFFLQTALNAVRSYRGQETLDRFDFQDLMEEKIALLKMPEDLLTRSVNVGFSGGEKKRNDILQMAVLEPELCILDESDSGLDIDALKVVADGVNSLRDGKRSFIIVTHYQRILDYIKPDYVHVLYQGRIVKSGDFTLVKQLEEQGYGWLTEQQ
Chain of SufBC2D scaffold complex (His6-SufBCD) (E. coli) (P77689 whole entry, chain 3 of 3, further chain): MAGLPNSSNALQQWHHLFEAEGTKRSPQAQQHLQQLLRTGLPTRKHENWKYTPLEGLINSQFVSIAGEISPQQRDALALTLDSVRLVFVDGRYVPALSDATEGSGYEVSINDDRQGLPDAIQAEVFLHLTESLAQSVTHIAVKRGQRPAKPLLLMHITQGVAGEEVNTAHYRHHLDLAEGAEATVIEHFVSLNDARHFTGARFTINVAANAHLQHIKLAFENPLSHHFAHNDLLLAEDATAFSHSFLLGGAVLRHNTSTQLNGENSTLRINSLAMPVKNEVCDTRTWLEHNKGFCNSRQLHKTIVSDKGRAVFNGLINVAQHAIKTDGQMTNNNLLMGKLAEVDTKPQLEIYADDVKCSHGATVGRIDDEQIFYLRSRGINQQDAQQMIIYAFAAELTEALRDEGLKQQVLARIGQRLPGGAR

[7] = target: SufBC2D scaffold complex (His6-SufBCD) (E. coli) (UniProt P77522); test: steady-state enzyme inhibition

Chain of SufS (Escherichia coli) (P77444 whole entry): as the sequence (P77444 whole entry, one chain of several) above
Chain of SufBC2D (Escherichia coli) (P77522 whole entry, chain 1 of 3): as the sequence (P77522 whole entry, chain 1 of 3) above
Chain of SufBC2D (Escherichia coli) (P77499 whole entry, chain 2 of 3, further chain): as the sequence (P77499 whole entry, chain 2 of 3, further chain) above
Chain of SufBC2D (Escherichia coli) (P77689 whole entry, chain 3 of 3, further chain): as the sequence (P77689 whole entry, chain 3 of 3, further chain) above

For SufE (from UniProt P76194), which Kd [1] is on record?
Its Kd is 500 nM.

And the Kd [2]?
Its Kd is 2800 nM.

And the Kd [3]?
The Kd was 5000 nM.

Which “NDA-alanine fluorescence detection of L-alanine produced” value [4] does the source give for `N[C@@H](CS)C(=O)O` [L-cysteine] here?
The value was “Cysteine desulfurase activity of SufS was measured by quantifying the amount of L-alanine produced”.

For “SufBC2D scaffold complex (His6-SufBCD) (from UniProt P77522 1-495; P77499 1-248; P77689 1-423)”, which Kd [5] is on record?
Its Kd is 1600 nM.

B1: SufE (wildtype) (natural protein)
chain: MALLPDKEKLLRNFLRCANWEEKYLYIIELGQRLPELRDEDRSPQNSIQGCQSQVWIVMRQNAQGIIELQGDSDAAIVKGLIAVVFILYDQMTPQDIVNFDVRPWFEKMALTQHLTPSRSQGLEAMIRAIRAKAAALS
For B1, which IC50 of inhibition of SufBC2D ATPase activity in the presence of 500 μM Mg2+-ATP [6] is on record?
Its IC50 of inhibition of SufBC2D ATPase activity in the presence of 500 μM Mg2+-ATP is 1000 nM.

And the Ki [7]?
The Ki was 1800 nM.

B2: Carbamidomethylated SufE (SufE-alk) (natural protein)
chain: MALLPDKEKLLRNFLRCANWEEKYLYIIELGQRLPELRDEDRSPQNSIQGCQSQVWIVMRQNAQGIIELQGDSDAAIVKGLIAVVFILYDQMTPQDIVNFDVRPWFEKMALTQHLTPSRSQGLEAMIRAIRAKAAALS
modifications: C51 alkylated (carbamidomethylated with iodoacetamide)
Which Ki [7] does the source give for B2 here?
The Ki was 2500 nM.
